In patent US20130149305A1 (UNIVERSITY OF MARYLAND BALTIMORE COUNTY, published 2013):

B1: recombinant mouse PD1-Fc fusion protein (Fc fusion, UniProt Q02242 25-167, looked up)
chain: LEVPNGPWRSLTFYPAWLTVSEGANATFTCSLSNWSEDLMLNWNRLSPSNQTEKQAAFCNGLSQPVQDARFQIIQLPNRHDFHMNILDTRRNDSGIYLCGAISLHPKAKIEESPGAELVVTERILETSTRYPSPSPKPEGRFQ
notes: Recombinant reagent; also called sPD1-Fc (mouse); soluble form of PD1; not shown: Fc part

Legend:
[1] = biological target: human CD28 on PHA-activated T cells of PBMC (human) (UniProt P10747); test: cell-based or functional assay
[2] = biological target: T1, mouse PDL1 co-expressed with mouse CD80 on CD80-transfected 4T1 cells (4T1/CD80) (mouse, UniProt Q9EP73 19-290; Q00609 38-306); test: flow cytometry on IFN-gamma-treated cells, sPD1-Fc detected with anti-PD1-APC
T1 construct: whole, on cells; also called PDL1 on 4T1/CD80 cells; PDL1+CD80+ 4T1/CD80 cells
T1 sequence (Q9EP73 19-290, chain 1 of 2): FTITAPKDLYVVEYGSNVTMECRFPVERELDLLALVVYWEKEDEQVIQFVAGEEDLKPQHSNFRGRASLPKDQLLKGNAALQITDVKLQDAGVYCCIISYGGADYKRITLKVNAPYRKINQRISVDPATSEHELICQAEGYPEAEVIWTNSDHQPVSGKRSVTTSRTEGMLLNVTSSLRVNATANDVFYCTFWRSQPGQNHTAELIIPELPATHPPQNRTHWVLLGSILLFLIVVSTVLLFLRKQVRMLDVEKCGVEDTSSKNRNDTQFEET
T1 sequence (Q00609 38-306, chain 2 of 2): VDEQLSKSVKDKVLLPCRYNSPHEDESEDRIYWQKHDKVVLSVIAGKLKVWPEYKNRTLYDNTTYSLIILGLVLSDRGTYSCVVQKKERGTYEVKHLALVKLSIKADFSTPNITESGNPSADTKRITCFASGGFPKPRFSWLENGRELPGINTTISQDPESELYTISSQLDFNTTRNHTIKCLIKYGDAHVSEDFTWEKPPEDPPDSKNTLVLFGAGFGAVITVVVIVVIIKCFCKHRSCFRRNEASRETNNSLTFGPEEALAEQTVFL

human CD28 on PHA-activated T cells of PBMC (human), sequence (P10747 19-220): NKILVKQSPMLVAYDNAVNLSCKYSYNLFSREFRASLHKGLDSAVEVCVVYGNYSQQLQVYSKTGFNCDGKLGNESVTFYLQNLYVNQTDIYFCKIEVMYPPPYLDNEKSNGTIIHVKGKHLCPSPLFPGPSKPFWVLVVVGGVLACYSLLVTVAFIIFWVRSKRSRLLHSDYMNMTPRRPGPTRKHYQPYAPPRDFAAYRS

| Molecule | increase of IFNγ production by PHA-activated PBMC, no tumor cells (ELISA) [1] [%] | binding result [2] |
| --- | --- | --- |
| soluble CD80-Fc: extracellular two domains of human CD80 fused to the Fc domain of IgG1 (Fc fusion) | 14 to 28 |  |
| B1 |  | no binding |
